These results are taken from US20080306007A1, “AGENTS FOR PROPHYLAXIS OR TREATMENT OF NEUROLOGICAL RELATED DISEASES AND CONDITIONS” (Newcastle Innovation Limited, priority 2007, published 2008).

For assay [1], the target named is amphiphysin I (native, from rat brain lysate) (rat) (UniProt O08838). As to the kind of experiment: peptide competition in GST-DynI-PRD pull-down from rat brain lysate; the filing later calls this an experimental artefact.
Assay [2] has as its target dynamin I (native, from rat brain synaptosomes; total pool) (rat) (UniProt P21575). As to the kind of experiment: sequential GST pull-downs from synaptosome lysate; molar ratio GST-AmphI-SH3:dynamin above 2:1.
The target is the same in assay [3]. As to the kind of experiment: GST pull-down from synaptosome lysate without salt.
Assay [4] addresses phospho-dynamin I (native, phosphorylated in vivo, from rat brain synaptosomes) (rat) (UniProt P21575). As to the kind of experiment: GST pull-down from 32Pi-labelled synaptosome lysate, 150 mM NaCl, quantitative analysis of autoradiograph against protein.

Sequence of phospho-dynamin I (native, phosphorylated in vivo, from rat brain synaptosomes) (rat) (P21575 whole entry): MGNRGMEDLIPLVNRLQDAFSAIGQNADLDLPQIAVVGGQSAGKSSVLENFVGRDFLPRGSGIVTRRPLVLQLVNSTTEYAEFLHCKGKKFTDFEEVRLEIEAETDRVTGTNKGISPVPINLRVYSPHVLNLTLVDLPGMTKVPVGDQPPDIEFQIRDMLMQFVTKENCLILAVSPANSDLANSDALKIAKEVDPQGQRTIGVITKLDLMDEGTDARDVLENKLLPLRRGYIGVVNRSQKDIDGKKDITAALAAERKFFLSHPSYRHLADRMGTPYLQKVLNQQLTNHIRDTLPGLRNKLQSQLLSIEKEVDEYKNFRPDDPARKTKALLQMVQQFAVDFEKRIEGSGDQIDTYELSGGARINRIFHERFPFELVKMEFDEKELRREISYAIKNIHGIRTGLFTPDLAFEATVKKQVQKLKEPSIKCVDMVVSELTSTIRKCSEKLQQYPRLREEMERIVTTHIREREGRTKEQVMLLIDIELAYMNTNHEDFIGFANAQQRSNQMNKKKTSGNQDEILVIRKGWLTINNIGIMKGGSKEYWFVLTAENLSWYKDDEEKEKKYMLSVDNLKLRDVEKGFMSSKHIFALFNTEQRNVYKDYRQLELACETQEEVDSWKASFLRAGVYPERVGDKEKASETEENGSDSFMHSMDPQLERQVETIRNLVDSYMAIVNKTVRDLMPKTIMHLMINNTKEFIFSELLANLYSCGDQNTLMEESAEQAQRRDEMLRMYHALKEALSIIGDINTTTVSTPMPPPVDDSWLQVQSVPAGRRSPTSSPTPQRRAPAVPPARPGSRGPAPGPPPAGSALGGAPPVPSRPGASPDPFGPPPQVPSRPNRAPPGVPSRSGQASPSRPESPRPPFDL
Sequence of dynamin I (native, from rat brain synaptosomes; total pool) (rat) (P21575 whole entry): as above
Sequence of amphiphysin I (native, from rat brain lysate) (rat) (O08838 whole entry): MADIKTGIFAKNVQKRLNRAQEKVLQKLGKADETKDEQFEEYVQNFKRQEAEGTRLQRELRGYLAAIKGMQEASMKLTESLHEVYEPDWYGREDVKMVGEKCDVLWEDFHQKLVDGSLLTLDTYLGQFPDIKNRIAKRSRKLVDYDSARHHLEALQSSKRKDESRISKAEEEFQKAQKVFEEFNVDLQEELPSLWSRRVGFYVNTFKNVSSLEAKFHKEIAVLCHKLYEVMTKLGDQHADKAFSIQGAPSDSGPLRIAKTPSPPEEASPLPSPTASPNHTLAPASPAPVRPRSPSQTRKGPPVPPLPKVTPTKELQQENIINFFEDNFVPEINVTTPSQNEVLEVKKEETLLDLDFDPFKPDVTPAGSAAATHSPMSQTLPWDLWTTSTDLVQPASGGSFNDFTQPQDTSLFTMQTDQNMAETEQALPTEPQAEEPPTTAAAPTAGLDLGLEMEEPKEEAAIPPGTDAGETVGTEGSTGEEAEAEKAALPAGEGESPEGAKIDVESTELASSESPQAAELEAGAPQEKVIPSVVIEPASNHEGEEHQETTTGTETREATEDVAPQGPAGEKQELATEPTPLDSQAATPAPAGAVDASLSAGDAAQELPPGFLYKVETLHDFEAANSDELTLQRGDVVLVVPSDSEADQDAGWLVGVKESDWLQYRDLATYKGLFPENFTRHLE
Sequence of GST-EndoI-SH3 (O35179 290-349): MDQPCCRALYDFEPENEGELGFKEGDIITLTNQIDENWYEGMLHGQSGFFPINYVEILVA

Turning to DynI783-796 peptide, the fold higher peptide concentration needed for inhibition in assay [1] was determined as 10 fold.
On to GST-AmphI-SH3, for which the residual dynamin recovered in a second sequential pull-down in assay [2] is less than 1%.
GST-EndoI-SH3: the percent of synaptosomal dynamin I extracted in assay [3] is greater than 95%.
For the substance “full-length GST-fusion protein of endophilin I (EndoI-FL)”, the binding to phospho-dynamin I relative to the total dynamin I bound to the beads (% of AmphI-SH3 control) in assay [4] was found to be 91.
On the same count and under the same terms, the result for “full-length GST-fusion protein of syndapin I (SdpnI-FL)” reads 56.
